Results taken from the supplement of paper PMC7125110.
± gives the standard error. For part of these data: This sample holds only a part of the variants without activity.

B1: glmS ribozyme (parent)
chain: AUAAAAGCGCCAGAACUACAGAAAUGUAGUUGACGAGGAGGAGGUUUAUCGAAUUUUCGGCGGAUGCCUCCAAA

Assays:
Conditions in all cases: with glucosamine-6-phosphate
[1] = variants of: B1; experiment: kcat; higher = faster cleavage; RNA array
In short: (§1)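 kcat and KM were obtained from weighted Michaelis–Menten fits across concentrations of kobs values. Those came from one- or two-exponential decay fits to per-tile medians normalised to baseline and to non-cleaving reference variants. The variants were barcoded ribozymes transcribed in situ by E. coli RNA polymerase on sequenced MiSeq chips and tracked through a hybridised Cy3 probe at 37 °C, with 40 μM to 10 mM glucosamine-6-phosphate in HEPES/KCl/Mg(OAc)2 buffer flowed in.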

[2] = variants of: B1; experiment: KM; higher = weaker cofactor use; RNA array
In short: as §1

[3] = variants of: B1; experiment: self-cleavage kobs at 640 uM GlcN6P; higher = faster cleavage; RNA array
In short: as §1

[4] = variants of: B1; experiment: self-cleavage kobs at 2500 uM GlcN6P; higher = faster cleavage; RNA array
In short: as §1

[5] = variants of: B1; experiment: self-cleavage kobs at 10000 uM GlcN6P; higher = faster cleavage; RNA array
In short: as §1

[6] = variants of: B1; experiment: self-cleavage kobs at 40 uM GlcN6P; higher = faster cleavage; RNA array
In short: as §1

[7] = variants of: B1; experiment: self-cleavage kobs at 160 uM GlcN6P; higher = faster cleavage; RNA array
In short: as §1

Variant	kcat [1] [s⁻¹]	KM [2] [mM]	self-cleavage kobs at 640 uM GlcN6P [3] [s⁻¹]	self-cleavage kobs at 2500 uM GlcN6P [4] [s⁻¹]	self-cleavage kobs at 10000 uM GlcN6P [5] [s⁻¹]	self-cleavage kobs at 40 uM GlcN6P [6] [s⁻¹]	self-cleavage kobs at 160 uM GlcN6P [7] [s⁻¹]
AUAAAAGCGCCAGAACUACAGAAAUGUAGUUGAAGAGGAGGAGGUUUAUCUAAUUUUCGGCGGAUGCCUCCAAA	0.000727 ± 0.00012	3.28 ± 1.2	0.000141 ± 3e-05	0.000354 ± 6.1e-05	0.000537 ± 4.9e-05		
AUAAAAGCGCAAGAACUACAGAAAUGUAGUUGACGAGGAGGAGGUUUAUCGAAUUUUCGGCAGAUGCCUCCAAA	1.14e-05 ± 2e-06						
AUAAAUGCGCCAGAACUACAGAAAUGUAGUUGACGAGGGGGAGGUUUAUCGAAUUUUCGGCGGAUGCCUCCAAA	0.000267 ± 2.8e-05	5.03 ± 1.1		9.44e-05 ± 1.8e-05	0.000175 ± 2.6e-05		
AUAAAAGCGCCAGAACUACAGAAAUGUAGUUGACGAGGAGGAGGACUAUCGAAUUUUCGGCGGAUGCCUCCAAA	0.0497 ± 0.021	3.03 ± 1.5		0.0334 ± 0.017	0.0365 ± 0.012	0.000726 ± 0.00015	0.00197 ± 0.00065
AUAAAAGCGCCAGAACUACAGAAAUGUAGUUGACGAGGAGGAGGUUUAUAGAAUUUUCGGCGGAUGCCUCAAAA	1.53e-05 ± 3.9e-06						
AUAAAAGCGCCAGAACUACAGAAAUGUAGUUGACGAGGAGGAGGUUUAUCGAAUUUUCGGCGUAUGUCUCCAAA	< 1e-05		< 1e-05			< 1e-05	
AUAAAAGCGCCAGAACUACAGAAAUGUAGUAGACGAGGAGGAGGCUUAUCGAAUUUUCGGCGGAUGCCUCCAAA	0.00168 ± 0.00049	3.38 ± 1.6	0.000288 ± 8.9e-05	0.000998 ± 0.00023	0.00116 ± 0.00024		
AUAAAAACGCCAGAACUACAGAAAUGUAGUUGACGAGGAGGAGGCUUAUCGAAUUUUCGGCGGAUGCCUCCAAA	< 1e-05		< 1e-05				
AUAAACGCGCCAGGACUACAGAAAUGUAGUUGACGAGGAGGAGGUUUAUCGAAUUUUCGGCGGAUGCCUCCAAA	0.000252 ± 8.5e-06	1.22 ± 0.21		0.000164 ± 3.1e-05	0.000226 ± 2.3e-05		
AUAAAAGCGCCGGAACUACAGAAAUGUAGUUGACGAGGAGGAGGUUUAUCCAAUUUUCGGCGGAUGCCUCCAAA	< 1e-05			< 1e-05	< 1e-05	< 1e-05	< 1e-05
AUAAAAGCGCCAGAACUACAGAAAUGUAGUUUACGAGGAGGAGGUUUAUGGAAUUUUCGGCGGAUGCCUCGAAA	0.000195 ± 2.4e-05		0.000151 ± 6.3e-05	0.000194 ± 6.4e-05	0.000231 ± 5.8e-05	0.000189 ± 5.1e-05	
AUAAAAGCGCCAGAACUACAGAAAUGUAGUUGACGAGGAGGAGGUUUAUCGAAUUUUCGGCGGGUGCCACCAAA	8.09e-05 ± 8.7e-06	1.23 ± 0.51	3.36e-05 ± 1.6e-05	4.75e-05 ± 1.6e-05	7.42e-05 ± 1.3e-05	< 1e-05	
AUAAAAGCGCCAGAACUACAGAAAUGUAGUUGACGAGGAGGAGGUUUAUCGAAUUUUCGGUGGAUGCCACCAAA	4.43e-05 ± 1.5e-05		4.2e-05 ± 1.3e-05	6.76e-05 ± 1.9e-05			3.86e-05 ± 1.8e-05
AUAAAAGCGCCAGAACUACAGAAAUGUAGUUAACGAGGACGAGGUUUAUCGAAUUUUCGGCGGAUGCCUCCAAA	0.00047 ± 8.1e-05	5.73 ± 1.6	5.53e-05 ± 9.2e-06	0.000126 ± 1.8e-05	0.000309 ± 3.3e-05		
AUAAAAGCGCCAGAACUACAGAAAUGUAGUUGACGAGGAUGAGGUUUAUCGAAUUUUCGGCGGAUCCCUCCAAA	0.000542 ± 7.3e-05	2.06 ± 0.89			0.00046 ± 6.4e-05		
AUAAAAGCGCCAGAACUACAGAAAUGUAGUUGACGAGCAGGAGGUUUGUCGAAUUUUCGGCGGAUGCCUCCAAA	< 1e-05		< 1e-05				
AUAAAAGCGCCAGAACUACAGAAAUGUAGUGGACGAGGAGGAGGUUUAUCGAAUUUUCGGCGGAUGCCUCUAAA	0.0144 ± 0.0067		0.00235 ± 0.00045	0.00836 ± 0.0019	0.0107 ± 0.0016	0.000277 ± 3.1e-05	0.000479 ± 8.2e-05
AUAAAAGCGCCAGAACUACAGAAAUGUAGAUGACGAGGAGGAGGAUUAUCGAAUUUUCGGCGGAUGCCUCCAAA	0.00916 ± 0.0024	1.29 ± 0.5	0.00285 ± 0.00065	0.00515 ± 0.001	0.0107 ± 0.0021	0.000369 ± 6.4e-05	0.000872 ± 0.00018
AUAAAUGCGCCAGAACUACAGAAAUGUAGUUGACGAGGAGUAGGUUUAUCGAAUUUUCGGCGGAUGCCUCCAAA	4.92e-05 ± 3.2e-06						
